Measurements: the supplement of paper PMC5998384

Columns and labels:
HeLa Kyoto [1] = assay: melting temperature (median over replicates), in situ; higher = more thermally stable
HeLa Kyoto [2] = assay: solubility change mitosis vs G1/S (difference of NP-40 vs SDS log2 ratios) (log2 ratio difference); higher = more soluble in mitosis
HeLa Kyoto [3] = assay: thermal stability score vs G1/S (z-score of summed log2 fold changes over temperatures); higher = more thermally stable than in G1/S
HeLa Kyoto [4] = assay: solubility in G1/S (NP-40 vs SDS abundance) (log2 ratio); higher = more soluble; conditions: cell cycle stage: G1/S
[5] = cell cycle stage: early G1 (4.5 h after nocodazole release)
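Throughout, for melting temperature (median over replicates), in situ: HeLa Kyoto cells synchronized by double thymidine or nocodazole block, proteins quantified by TMT10plex mass spectrometry, three independent biological replicates.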
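Throughout, for solubility change mitosis vs G1/S (difference of NP-40 vs SDS log2 ratios): synchronized HeLa Kyoto cells (double thymidine block for G1/S, nocodazole release for mitosis), protein amounts in NP-40 versus SDS lysates quantified by mass spectrometry, three biological replicates.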
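Throughout, for solubility in G1/S (NP-40 vs SDS abundance): HeLa Kyoto cells arrested at G1/S by double thymidine block, proteins quantified by TMT10plex mass spectrometry in mild NP-40 versus SDS extracts, three biological replicates.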
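Throughout, for thermal stability score vs G1/S (z-score of summed log2 fold changes over temperatures): synchronized HeLa Kyoto cells, proteins quantified by TMT10plex mass spectrometry, three biological replicates, mitosis taken 0.5 h after nocodazole release, G1/S directly after double thymidine block.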

Sequence | melting temperature (HeLa Kyoto [1]; cell cycle stage: G1/S) [°C] | melting temperature (HeLa Kyoto [1]; cell cycle stage: mitosis) [°C] | solubility change mitosis (log2) (HeLa Kyoto [2]) | thermal stability score (HeLa Kyoto [3]; [5]) | thermal stability score (HeLa Kyoto [3]; cell cycle stage: mitosis) | solubility in G1/S (log2) (HeLa Kyoto [4])
MYTAIPQSGSPFPGSVQDPGLHVWRVEKLKPVPVAQENQGVFFSGDSYLVLHNGPEEVSHLHLWIGQQSSRDEQGACAVLAVHLNTLLGERPVQHREVQGNESDLFMSYFPRGLKYQEGGVESAFHKTSTGAPAAIKKLYQVKGKKNIRATERALNWDSFNTGDCFILDLGQNIFAWCGGKSNILERNKARDLALAIRDSERQGKAQVEIVTDGEEPAEMIQVLGPKPALKEGNPEEDLTADKANAQAAALYKVSDATGQMNLTKVADSSPFALELLISDDCFVLDNGLCGKIYIWKGRKANEKERQAALQVAEGFISRMQYAPNTQVEILPQGHESPIFKQFFKDWK [CAPG] | 50.2 | 50.3 | -0.0974 | 0.941 | 0.63 | 0.272
MPHFTVVPVDGPRRGDYDNLEGLSWVDYGERAELDDSDGHGNHRESSPFLSPLEASRGIDYYDRNLALFEEELDIRPKVSSLLGKLVSYTNLTQGAKEHEEAESGEGTRRRAAEAPSMGTLMGVYLPCLQNIFGVILFLRLTWMVGTAGVLQALLIVLICCCCTLLTAISMSAIATNGVVPAGGSYFMISRSLGPEFGGAVGLCFYLGTTFAAAMYILGAIEILLTYIAPPAAIFYPSGAHDTSNATLNNMRVYGTIFLTFMTLVVFVGVKYVNKFASLFLACVIISILSIYAGGIKSIFDPPVFPVCMLGNRTLSRDQFDICAKTAVVDNETVATQLWSFFCHSPNLTTDSCDPYFMLNNVTEIPGIPGAAAGVLQENLWSAYLEKGDIVEKHGLPSADAPSLKESLPLYVVADIATSFTVLVGIFFPSVTGIMAGSNRSGDLRDAQKSIPVGTILAIITTSLVYFSSVVLFGACIEGVVLRDKYGDGVSRNLVVGTLAWPSPWVIVIGSFFSTCGAGLQSLTGAPRLLQAIAKDNIIPFLRVFGHGKVNGEPTWALLLTALIAELGILIASLDMVAPILSMFFLMCYLFVNLACAVQTLLRTPNWRPRFKYYHWALSFLGMSLCLALMFVSSWYYALVAMLIAGMIYKYIEYQGAEKEWGDGIRGLSLSAARYALLRLEEGPPHTKNWRPQLLVLLKLDEDLHVKYPRLLTFASQLKAGKGLTIVGSVIQGSFLESYGEAQAAEQTIKNMMEIEKVKGFCQVVVASKVREGLAHLIQSCGLGGMRHNSVVLGWPYGWRQSEDPRAWKTFIDTVRCTTAAHLALLVPKNIAFYPSNHERYLEGHIDVWWIVHDGGMLMLLPFLLRQHKVWRKCRMRIFTVAQMDDNSIQMKKDLAVFLYHLRLEAEVEVVEMHNSDISAYTYERTLMMEQRSQMLRQMRLTKTEREREAQLVKDRHSALRLESLYSDEEDESAVGADKIQMTWTRDKYMTETWDPSHAPDNFRELVHIKPDQSNVRRMHTAVKLNEVIVTRSHDARLVLLNMPGPPRNSEGDENYMEFLEVLTEGLERVLLVRGGGREVITIYS [SLC12A4] | 54.3 | 54.2 | -0.148 | 0.505 | 0.0338 | 0.0648
MFVQEEKIFAGKVLRLHICASDGAEWLEEATEDTSVEKLKERCLKHCAHGSLEDPKSITHHKLIHAASERVLSDARTILEENIQDQDVLLLIKKRAPSPLPKMADVSAEEKKKQDQKAPDKEAILRATANLPSYNMDRAAVQTNMRDFQTELRKILVSLIEVAQKLLALNPDAVELFKKANAMLDEDEDERVDEAALRQLTEMGFPENRATKALQLNHMSVPQAMEWLIEHAEDPTIDTPLPGQAPPEAEGATAAASEAAAGASATDEEARDELTEIFKKIRRKREFRADARAVISLMEMGFDEKEVIDALRVNNNQQNAACEWLLGDRKPSPEELDKGIDPDSPLFQAILDNPVVQLGLTNPKTLLAFEDMLENPLNSTQWMNDPETGPVMLQISRIFQTLNRT [UBAC1] | 50.9 | 50.6 | -0.0991 | 1.16 | 0.844 | 0.313
MNWELLLWLLVLCALLLLLVQLLRFLRADGDLTLLWAEWQGRRPEWELTDMVVWVTGASSGIGEELAYQLSKLGVSLVLSARRVHELERVKRRCLENGNLKEKDILVLPLDLTDTGSHEAATKAVLQEFGRIDILVNNGGMSQRSLCMDTSLDVYRKLIELNYLGTVSLTKCVLPHMIERKQGKIVTVNSILGIISVPLSIGYCASKHALRGFFNGLRTELATYPGIIVSNICPGPVQSNIVENSLAGEVTKTIGNNGDQSHKMTTSRCVRLMLISMANDLKEVWISEQPFLLVTYLWQYMPTWAWWITNKMGKKRIENFKSGVDADSSYFKIFKTKHD [DHRS7] | 56.6 | 56.6 | -0.0912 | -1.54 | -1.34 | -0.297
MDISTRSKDPGSAERTAQKRKFPSPPHSSNGHSPQDTSTSPIKKKKKPGLLNSNNKEQSELRHGPFYYMKQPLTTDPVDVVPQDGRNDFYCWVCHREGQVLCCELCPRVYHAKCLRLTSEPEGDWFCPECEKITVAECIETQSKAMTMLTIEQLSYLLKFAIQKMKQPGTDAFQKPVPLEQHPDYAEYIFHPMDLCTLEKNAKKKMYGCTEAFLADAKWILHNCIIYNGGNHKLTQIAKVVIKICEHEMNEIEVCPECYLAACQKRDNWFCEPCSNPHPLVWAKLKGFPFWPAKALRDKDGQVDARFFGQHDRAWVPINNCYLMSKEIPFSVKKTKSIFNSAMQEMEVYVENIRRKFGVFNYSPFRTPYTPNSQYQMLLDPTNPSAGTAKIDKQEKVKLNFDMTASPKILMSKPVLSGGTGRRISLSDMPRSPMSTNSSVHTGSDVEQDAEKKATSSHFSASEESMDFLDKSTASPASTKTGQAGSLSGSPKPFSPQLSAPITTKTDKTSTTGSILNLNLDRSKAEMDLKELSESVQQQSTPVPLISPKRQIRSRFQLNLDKTIESCKAQLGINEISEDVYTAVEHSDSEDSEKSDSSDSEYISDDEQKSKNEPEDTEDKEGCQMDKEPSAVKKKPKPTNPVEIKEELKSTSPASEKADPGAVKDKASPEPEKDFSEKAKPSPHPIKDKLKGKDETDSPTVHLGLDSDSESELVIDLGEDHSGREGRKNKKEPKEPSPKQDVVGKTPPSTTVGSHSPPETPVLTRSSAQTSAAGATATTSTSSTVTVTAPAPAATGSPVKKQRPLLPKETAPAVQRVVWNSSSKFQTSSQKWHMQKMQRQQQQQQQQNQQQQPQSSQGTRYQTRQAVKAVQQKEITQSPSTSTITLVTSTQSSPLVTSSGSMSTLVSSVNADLPIATASADVAADIAKYTSKMMDAIKGTMTEIYNDLSKNTTGSTIAEIRRLRIEIEKLQWLHQQELSEMKHNLELTMAEMRQSLEQERDRLIAEVKKQLELEKQQAVDETKKKQWCANCKKEAIFYCCWNTSYCDYPCQQAHWPEHMKSCTQSATAPQQEADAEVNTETLNKSSQGSSSSTQSAPSETASASKEKETSAEKSKESGSTLDLSGSRETPSSILLGSNQGSDHSRSNKSSWSSSDEKRGSTRSDHNTSTSTKSLLPKESRLDTFWD [ZMYND8] | 48.5 | 50.2 | 0.163 | 1.53 | 3.16 | -0.387
